From patent publication US20100125055A1 (Dana-Farber, published 2010)
Where no end group is shown, it is not given here.

B1: His-tagged MUC1 cytoplasmic domain (other)
chain: CQCRRKNYGQLDIFPARDTYHPMSEYPTYHTHGRYVPPSSTDRSPYEKVSAGNGGSSLSYTNPAVAATSANL
notes: Purified recombinant protein; It forms oligomers; also called His-MUC1-CD; His-tagged MUC1-CD; not shown: His tag

What was measured:
[1] = target: B1; assay: BIAcore (SPR), His-MUC1-CD immobilized, peptide injected at 10 uM, 1:1 Langmuir fit
Description: (§1) The N-terminal 15 amino acids (shaded sequence) MUC1/CQC and mutated MUC1/AQA peptides were synthesized with the poly-dArg transduction domain. (FIG. 1B) His-MUC1-CD (1.4 mg/ml) was immobilized on a sensor chip in a BIAcore. MUC1/CQC was injected over the chip at 10 μM. Raw binding data were analyzed by BIAevaluation software version 3.0 and fit to a 1:1 Languir binding model. (FIG. 1C) Purified His-MUC1-CD (1.5 mg/ml) was incubated with PBS, 200 μM MUC1/CQC or 200 μM MUC1/AQA for 1 h at room temperature. The proteins were separated in a non-reducing SDS-polyacrylamide gel and analyzed by immunoblotting with anti-MUC1-C. (FIG. 1D) 293 cells were transiently transfected to express an empty vector or GFP-MUC1-CD and Flag-MUC1-CD. At 48 h after transfection, the cells were treated with 5 μM MUC1/CQC or MUC1/AQA for 3 d. The cells were then harvested for immunoblotting with anti-MUC1-C (left panel). Whole cell lysates were also precipitated with anti-Flag and the precipitates were immunoblotted with the indicated antibodies (right panels).
Effects of the MUC1/CQC peptide on MUC1 oligomer formation. The MUC1 cytoplasmic domain (MUC1-CD) contains a CQC motif that is necessary for the formation of oligomers and nuclear localization (Leng et al., 2007). […] Purified His-tagged MUC1-CD forms oligomers as detected by electrophoresis in polyacrylamide gels (FIG. 1C).

[2] = target: the molecule itself; assay: self-association of purified His-MUC1-CD (1.5 mg/ml); non-reducing SDS-polyacrylamide gel, immunoblot with anti-MUC1-C; incubated 1 h with PBS, 200 uM MUC1/CQC or 200 uM MUC1/AQA
Description: as §1, with “Schematic representation of the MUC1-C subunit and the 72-amino acid sequence of MUC1-CD are shown. The N-terminal” for “The N-terminal”

Row | Kd [1] [nM] | Binder | binding result [2]
1 | 30 | CQCRRKNYGQLDIFP (cysteine pairing not given here; also: poly-D-Arg transduction domain, length and attachment end not given here, Synthetic peptide (MIT Biopolymer Laboratory); also called CQC long (15-mer); not shown: The poly-D-Arg cell transduction domain) [MUC1/CQC peptide] | –
2 | – | B1 | binds
